In patent US20230265215A1 (OMEROS, published 2023):
“And” between values parts separate entries of the source, which are not always exact repeats. Equal values may be shown once.

Experiments:
[1] = target: T1, human MASP-2 (endogenous, in normal human serum) (human, UniProt O00187 16-686); experiment: cell-based or functional assay
[2] = target: T1, human MASP-2 (endogenous, in normal …); experiment: cell-based or functional assay; remark: listed apart in the source
[3] = target: rat MASP-2 (endogenous, in rat serum) (rat, UniProt Q9JJS8 20-685); experiment: cell-based or functional assay
[4] = target: mouse MASP-2 (endogenous, in mouse serum or hirudin plasma) (mouse, UniProt Q91WP0 20-685); experiment: cell-based or functional assay
[5] = target: cynomolgus monkey MASP-2 (endogenous, in cynomolgus monkey serum) (cynomolgus monkey, UniProt O00187 16-686 (human entry), limits assumed); experiment: cell-based or functional assay
[6] = target: T1, human MASP-2 (endogenous, in normal …); experiment: cell-based or functional assay; remark: listed apart in the source
[7] = target: T1, human MASP-2 (endogenous, in normal …); experiment: cell-based or functional assay; remark: listed apart in the source
[8] = target: T2, human MASP-2 (CCP1-CCP2-SP fragment) (human, UniProt O00187 287-686, limits assumed); experiment: solid phase ELISA, plate coated with human MASP-2 CCP1-CCP2-SP fragment
T2 construct: also called human MASP-2 (CCP1/2/SP fragment); hMASP-2-CCP1-CCP2-SP
Experimental: To measure binding of the 26 purified recombinant MASP-2 antibodies to human MASP-2 (CCP1-CCP2-SP fragment), a solid phase ELISA assay was carried out as follows. A MaxiSorp ELISA plate was coated with human MASP-2 (CCP1/2/SP fragment) at 1.0 μg/mL in carbonate/bi-carbonate buffer overnight at 4° C. […] The plate was washed (PBS-T, 0.05%) and a detection antibody was added (goat anti-human IgG-HRP) for one hour at room temperature. After another wash (PBS-T, 0.05%) the plate was developed (5 minutes) with OPT EIA TMB (BD Biosciences #555214). Absorbance reading at A450 was measured using the Spectramax M5e plate reader.
A solid phase ELISA assay was carried out to measure binding of the three selected MASP-2 inhibitory antibodies to human MASP-2 (CCP1-CCP2-SP fragment), as described in Example 1.

T1 sequence (O00187 16-686 limits assumed): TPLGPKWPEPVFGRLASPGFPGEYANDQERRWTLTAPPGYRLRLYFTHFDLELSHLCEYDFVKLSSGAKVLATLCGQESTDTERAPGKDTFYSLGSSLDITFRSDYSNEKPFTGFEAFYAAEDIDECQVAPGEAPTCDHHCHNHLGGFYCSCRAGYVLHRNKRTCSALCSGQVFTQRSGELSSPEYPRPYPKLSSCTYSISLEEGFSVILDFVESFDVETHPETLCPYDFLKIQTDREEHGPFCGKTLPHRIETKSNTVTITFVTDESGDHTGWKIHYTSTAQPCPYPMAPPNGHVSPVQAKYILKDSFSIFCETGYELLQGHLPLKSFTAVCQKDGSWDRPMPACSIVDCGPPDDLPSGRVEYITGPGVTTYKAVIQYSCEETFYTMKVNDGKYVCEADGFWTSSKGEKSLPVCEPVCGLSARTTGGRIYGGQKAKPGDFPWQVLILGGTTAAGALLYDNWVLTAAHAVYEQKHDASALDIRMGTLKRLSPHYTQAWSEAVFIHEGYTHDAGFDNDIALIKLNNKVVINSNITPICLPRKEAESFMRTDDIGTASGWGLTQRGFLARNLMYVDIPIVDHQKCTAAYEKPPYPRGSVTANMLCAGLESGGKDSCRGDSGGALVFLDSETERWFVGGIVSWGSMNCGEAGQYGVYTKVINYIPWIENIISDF
rat MASP-2 (endogenous, in rat serum), sequence (Q9JJS8 other isoform, or with tags, fused parts or gaps limits assumed): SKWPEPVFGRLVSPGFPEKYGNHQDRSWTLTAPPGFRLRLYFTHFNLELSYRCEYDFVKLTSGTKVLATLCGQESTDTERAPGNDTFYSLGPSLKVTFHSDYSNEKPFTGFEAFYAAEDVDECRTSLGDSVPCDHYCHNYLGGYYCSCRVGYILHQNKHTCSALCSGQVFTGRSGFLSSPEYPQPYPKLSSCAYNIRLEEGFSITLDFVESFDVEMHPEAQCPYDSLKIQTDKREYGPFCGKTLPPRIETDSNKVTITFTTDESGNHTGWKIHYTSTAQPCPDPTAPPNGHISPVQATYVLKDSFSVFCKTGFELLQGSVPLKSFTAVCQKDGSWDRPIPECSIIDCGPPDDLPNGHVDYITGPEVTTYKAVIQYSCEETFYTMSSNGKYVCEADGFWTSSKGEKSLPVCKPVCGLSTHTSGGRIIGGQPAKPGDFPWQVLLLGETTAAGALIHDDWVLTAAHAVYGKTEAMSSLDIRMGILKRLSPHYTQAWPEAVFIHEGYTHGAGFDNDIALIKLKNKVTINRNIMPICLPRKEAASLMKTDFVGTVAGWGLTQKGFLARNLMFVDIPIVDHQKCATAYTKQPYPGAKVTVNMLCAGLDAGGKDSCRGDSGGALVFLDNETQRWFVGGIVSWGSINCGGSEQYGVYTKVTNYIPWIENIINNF
T2 sequence (O00187 287-686 limits assumed): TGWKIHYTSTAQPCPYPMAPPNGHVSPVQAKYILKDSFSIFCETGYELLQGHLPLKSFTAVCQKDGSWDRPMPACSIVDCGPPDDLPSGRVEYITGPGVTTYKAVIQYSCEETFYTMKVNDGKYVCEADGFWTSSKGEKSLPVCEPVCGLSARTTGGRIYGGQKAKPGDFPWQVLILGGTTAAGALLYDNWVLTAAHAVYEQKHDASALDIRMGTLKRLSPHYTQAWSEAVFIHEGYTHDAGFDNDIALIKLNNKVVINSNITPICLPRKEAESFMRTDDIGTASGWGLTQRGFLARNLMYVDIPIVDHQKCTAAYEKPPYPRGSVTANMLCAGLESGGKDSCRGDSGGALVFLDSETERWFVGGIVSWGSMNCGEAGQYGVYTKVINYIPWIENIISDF
mouse MASP-2 (endogenous, in mouse serum or hirudin plasma), sequence (Q91WP0 20-685 limits assumed): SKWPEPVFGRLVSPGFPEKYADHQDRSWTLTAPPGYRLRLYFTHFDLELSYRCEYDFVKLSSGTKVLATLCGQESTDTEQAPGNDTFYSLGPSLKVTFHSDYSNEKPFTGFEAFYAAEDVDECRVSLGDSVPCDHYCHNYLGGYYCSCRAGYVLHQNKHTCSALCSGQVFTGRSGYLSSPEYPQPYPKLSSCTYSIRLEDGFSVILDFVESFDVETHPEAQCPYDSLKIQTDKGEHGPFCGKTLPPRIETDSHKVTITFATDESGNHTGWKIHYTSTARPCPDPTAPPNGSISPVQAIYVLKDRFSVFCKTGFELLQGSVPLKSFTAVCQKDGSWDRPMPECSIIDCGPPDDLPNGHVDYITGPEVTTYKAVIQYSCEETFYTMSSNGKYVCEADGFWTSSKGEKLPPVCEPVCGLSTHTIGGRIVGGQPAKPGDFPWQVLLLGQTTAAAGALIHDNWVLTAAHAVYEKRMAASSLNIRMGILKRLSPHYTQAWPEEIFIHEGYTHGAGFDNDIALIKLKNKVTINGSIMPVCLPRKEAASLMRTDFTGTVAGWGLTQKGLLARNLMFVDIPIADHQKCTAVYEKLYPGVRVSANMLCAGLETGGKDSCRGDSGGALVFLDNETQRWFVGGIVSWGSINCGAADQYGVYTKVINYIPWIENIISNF
cynomolgus monkey MASP-2 (endogenous, in cynomolgus monkey serum), sequence (O00187 other isoform, or with tags, fused parts or gaps limits assumed): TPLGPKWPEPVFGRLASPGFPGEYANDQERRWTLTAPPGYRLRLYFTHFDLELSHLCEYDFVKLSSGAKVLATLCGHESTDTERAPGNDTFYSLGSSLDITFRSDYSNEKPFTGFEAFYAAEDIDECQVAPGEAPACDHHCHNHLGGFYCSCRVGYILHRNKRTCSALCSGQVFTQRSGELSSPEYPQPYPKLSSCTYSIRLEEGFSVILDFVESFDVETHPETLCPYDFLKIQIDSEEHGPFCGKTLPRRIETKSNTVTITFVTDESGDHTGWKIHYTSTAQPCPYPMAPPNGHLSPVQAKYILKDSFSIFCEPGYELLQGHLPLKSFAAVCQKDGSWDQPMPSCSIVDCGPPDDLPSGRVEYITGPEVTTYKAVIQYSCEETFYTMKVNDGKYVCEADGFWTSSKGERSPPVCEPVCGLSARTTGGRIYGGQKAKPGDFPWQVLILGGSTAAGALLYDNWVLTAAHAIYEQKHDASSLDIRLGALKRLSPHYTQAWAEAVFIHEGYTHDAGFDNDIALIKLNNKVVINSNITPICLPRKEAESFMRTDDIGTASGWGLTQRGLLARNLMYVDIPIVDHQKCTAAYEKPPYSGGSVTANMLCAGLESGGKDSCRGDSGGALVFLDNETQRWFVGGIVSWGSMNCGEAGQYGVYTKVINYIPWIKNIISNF

B1: mAb OMS850 (mouse-human chimeric, mouse parental variable regions) (antibody, human IgG4 S228P, kappa, V domains shown)
VH: QVQLQQPGAELVRPGSSVRLSCKASGYTFTNYWMHWLKQRPIQGLEWIGDIDPSDSETHYIEKFKDKATLTIDKSSSTAYMHLSSLTSEDSAIYYCARGDITTTLRYFDVWGTGTTVTVSS
VL: QIVLTQSPVIMSASPGEKVTMTCSASSSVRYMYWYQQKPGSSPRLLIYDTSNLASGVPVRFSGSGSGTSNSLTISRMEAEDAATYYCQQWSSYPLTFGAGTKLELKR
notes: also called OMS850 parent
Human C3b deposition, IC50 [1]: 0.09 nM | C3b deposition on mannan, 1.0% human serum, IC50 [2]: 0.15 nM | C3b deposition on mannan, 0.3% rat serum, IC50 [3]: 0.05 nM | C3b deposition on mannan, 1.0% mouse serum, IC50 [4]: 0.5 nM | C3b deposition on mannan, 0.25% cynomolgus monkey serum, IC50 [5]: 0.4 nM | Human C3b deposition, 1% human serum, IC50 [6]: 0.15 nM and 0.12 nM | C4b deposition on mannan, 50% human serum, IC50 [7]: 0.07 µg/mL | EC50 [8]: 0.25 nM

B2: mAb OMS860 (mouse-human chimeric, mouse parental variable regions) (antibody, human IgG4 S228P, kappa, V domains shown)
VH: QVQLQQPGAELVRPGSSVKLSCKASGYTFTNYWMHWVRQRPIQGLEWIGDIDPSDSEIYYNQKFKDKATLTVDKSSSTAYMHLSSLTSEDSAVYYCARGDITTTLRYFDVWGTGTTVTVSS
VL: QIVLTQSPVIMSASPGEKVTITCSASSSVSYMYWYQQKPGSSPRLLIYDTSNLASGVPVRFSGSGSGTSNSLTISRMEAEDAATYYCQQWSSYPLTFGAGTKLELKR
C3b deposition on mannan, 1.0% human serum, IC50 [2]: 0.6 nM | C3b deposition on mannan, 0.3% rat serum, IC50 [3]: 0.3 nM | C3b deposition on mannan, 1.0% mouse serum, IC50 [4]: 5.8 nM | C3b deposition on mannan, 0.25% cynomolgus monkey serum, IC50 [5]: 26.2 nM | C4b deposition on mannan, 50% human serum, IC50 [7]: 0.1 µg/mL | EC50 [8]: 0.23 nM

B3: mAb OMS870 (mouse-human chimeric, mouse parental variable regions) (antibody, human IgG4 S228P, kappa, V domains shown)
VH: EVQLQQPGTELVKPGASVKLSCKASGYTFTSYWMHWVKQRPGQGLEWIGNINPSNGGTNCNEKFKNKATMTVDKSSSTAYMQLSSLTSEDSAVYYCARWAYDAMDYWGQGTSVTVSS
VL: DIVLTQSPASLAVSLGQRATISCRASESVDSYGNSFMHWYQQKPGQAPKLLIYFASNLESGVPARFSGSGSRTDFTLTIDPVEADDAATYFCQQSNEDPLTFGAGTKLELKR
C3b deposition on mannan, 1.0% human serum, IC50 [2]: 0.13 nM | C3b deposition on mannan, 0.3% rat serum, IC50 [3]: 0.6 nM | C3b deposition on mannan, 1.0% mouse serum, IC50 [4]: > 100 nM | C3b deposition on mannan, 0.25% cynomolgus monkey serum, IC50 [5]: 18.9 nM | C4b deposition on mannan, 50% human serum, IC50 [7]: 0.09 µg/mL | EC50 [8]: 0.41 nM

B4: OMS850_VH_P53/A (antibody, IgG4, V domains shown)
VH: QVQLQQPGAELVRPGSSVRLSCKASGYTFTNYWMHWLKQRPIQGLEWIGDIDASDSETHYIEKFKDKATLTIDKSSSTAYMHLSSLTSEDSAIYYCARGDITTTLRYFDVWGTGTTVTVSS
VL: QIVLTQSPVIMSASPGEKVTMTCSASSSVRYMYWYQQKPGSSPRLLIYDTSNLASGVPVRFSGSGSGTSNSLTISRMEAEDAATYYCQQWSSYPLTFGAGTKLELKR
Human C3b deposition, IC50 [1]: 0.07 nM

B5: OMS850_VH_P53/N (antibody, IgG4, V domains shown)
VH: QVQLQQPGAELVRPGSSVRLSCKASGYTFTNYWMHWLKQRPIQGLEWIGDIDNSDSETHYIEKFKDKATLTIDKSSSTAYMHLSSLTSEDSAIYYCARGDITTTLRYFDVWGTGTTVTVSS
VL: QIVLTQSPVIMSASPGEKVTMTCSASSSVRYMYWYQQKPGSSPRLLIYDTSNLASGVPVRFSGSGSGTSNSLTISRMEAEDAATYYCQQWSSYPLTFGAGTKLELKR
Human C3b deposition, IC50 [1]: 0.53 nM

B6: OMS850_VH_P53/D (antibody, IgG4, V domains shown)
VH: QVQLQQPGAELVRPGSSVRLSCKASGYTFTNYWMHWLKQRPIQGLEWIGDIDDSDSETHYIEKFKDKATLTIDKSSSTAYMHLSSLTSEDSAIYYCARGDITTTLRYFDVWGTGTTVTVSS
VL: QIVLTQSPVIMSASPGEKVTMTCSASSSVRYMYWYQQKPGSSPRLLIYDTSNLASGVPVRFSGSGSGTSNSLTISRMEAEDAATYYCQQWSSYPLTFGAGTKLELKR
Human C3b deposition, IC50 [1]: 0.16 nM

B7: OMS854 (monoclonal antibody OMS852 4PA-1) (antibody, V domains shown)
VH: QVQLVQSGAEVKKPGASVKVSCKASGYTFTNYWMHWLRQAPGQGLEWIGDIDASDSETHYIEKFKDRATLTIDKSSSTAYMELSSLRSEDTAVYYCARGDITTTLRYFDVWGQGTLVTVSS
VL: DIQLTQSPSSLSASVGDRVTITCSASSSVRYMYWYQQKPGKAPKLLIYDTSNLASGVPSRFSGSGSGTDNTLTISSLQPEDFATYYCQQWSSYPLTFGQGTKVEIKR
Human C3b deposition, 1% human serum, IC50 [6]: 0.09 nM
